The record followed here is article PMC1885643 (Nucleic Acids Research, 2007).

Read-outs that look alike come from different tables or passages of the source.

T1: FLAG-hRad9 (human, UniProt Q99638 1-391)
T1 sequence (looked up): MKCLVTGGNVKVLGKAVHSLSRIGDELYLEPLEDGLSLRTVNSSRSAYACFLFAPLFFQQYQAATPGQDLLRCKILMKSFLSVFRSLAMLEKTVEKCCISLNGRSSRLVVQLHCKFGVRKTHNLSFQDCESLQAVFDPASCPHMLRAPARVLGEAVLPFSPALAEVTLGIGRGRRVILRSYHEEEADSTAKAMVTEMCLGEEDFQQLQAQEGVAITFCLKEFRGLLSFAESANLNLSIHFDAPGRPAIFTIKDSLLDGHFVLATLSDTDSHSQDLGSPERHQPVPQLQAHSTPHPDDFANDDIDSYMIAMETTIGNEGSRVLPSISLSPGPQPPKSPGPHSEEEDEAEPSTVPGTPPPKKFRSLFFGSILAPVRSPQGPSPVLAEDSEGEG

B1: FLAG-hRad1 (natural protein, human, UniProt O60671 1-282, looked up)
chain: MPLLTQQIQDEDDQYSLVASLDNVRNLSTILKAIHFREHATCFATKNGIKVTVENAKCVQANAFIQAGIFQEFKVQEESVTFRINLTVLLDCLSIFGSSPMPGTLTALRMCYQGYGYPLMLFLEEGGVVTVCKINTQEPEETLDFDFCSTNVINKIILQSEGLREAFSELDMTSEVLQITMSPDKPYFRLSTFGNAGSSHLDYPKDSDLMEAFHCNQTQVNRYKISLLKPSTKALVLSCKVSIRTDNRGFLSLQYMIRNEDGQICFVEYYCCPDEEVPESES
B2: GST-hRad1 (natural protein, human, UniProt O60671 1-282, looked up)
chain: B1 chain
B3: GST-hHus1 (natural protein, human, UniProt O60921 1-280, looked up)
chain: MKFRAKIVDGACLNHFTRISNMIAKLAKTCTLRISPDKLNFILCDKLANGGVSMWCELEQENFFNEFQMEGVSAENNEIYLELTSENLSRALKTAQNARALKIKLTNKHFPCLTVSVELLSMSSSSRIVTHDIPIKVIPRKLWKDLQEPVVPDPDVSIYLPVLKTMKSVVEKMKNISNHLVIEANLDGELNLKIETELVCVTTHFKDLGNPPLASESTHEDRNVEHMAEVHIDIRKLLQFLAGQQVNPTKALCNIVNNKMVHFDLLHEDVSLQYFIPALS
B4: FLAG-hHus1 (natural protein, human, UniProt O60921 1-280, looked up)
chain: B3 chain
B5: His-tagged hHus1 (natural protein, human, UniProt O60921 1-280, looked up)
chain: B3 chain

Test [1] has as its target T1, FLAG-hRad9. Description: SEC. On the technique in general: SEC sorts molecules by how far they enter the pores of the column.
The target in test [2] is GST-hNEIL1 (residues 1–390) (human, UniProt Q96FI4 1-390). Description: pull-down.
Test [3] concerns the target T2, hNEIL1-CΔ40 (residues 2–350) (human, UniProt Q96FI4 2-350). Briefly: pull-down.
Test [4] deals with T3, processed intact hNEIL1 (residues 2–390) (human, UniProt Q96FI4 2-390). Description: pull-down.
Test [5] deals with B1. Briefly: SEC.
Test [6] addresses T2, hNEIL1-CΔ40 (residues 2–350). Description: pull-down. This is another data set of the same source.
In test [7] the target is T3, processed intact hNEIL1 (residues 2–390). Briefly: pull-down. The source holds these as a separate data set.

T2 sequence (Q96FI4 2-350, stated change not applied): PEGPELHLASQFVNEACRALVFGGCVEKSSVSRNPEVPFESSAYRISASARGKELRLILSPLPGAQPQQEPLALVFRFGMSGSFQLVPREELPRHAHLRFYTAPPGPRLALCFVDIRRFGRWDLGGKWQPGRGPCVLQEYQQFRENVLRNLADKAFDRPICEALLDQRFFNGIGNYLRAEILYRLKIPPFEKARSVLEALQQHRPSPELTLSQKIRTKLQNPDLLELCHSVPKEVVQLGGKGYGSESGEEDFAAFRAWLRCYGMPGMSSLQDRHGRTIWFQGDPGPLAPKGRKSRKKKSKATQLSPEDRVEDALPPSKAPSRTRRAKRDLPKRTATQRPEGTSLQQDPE
T3 sequence (Q96FI4 2-390): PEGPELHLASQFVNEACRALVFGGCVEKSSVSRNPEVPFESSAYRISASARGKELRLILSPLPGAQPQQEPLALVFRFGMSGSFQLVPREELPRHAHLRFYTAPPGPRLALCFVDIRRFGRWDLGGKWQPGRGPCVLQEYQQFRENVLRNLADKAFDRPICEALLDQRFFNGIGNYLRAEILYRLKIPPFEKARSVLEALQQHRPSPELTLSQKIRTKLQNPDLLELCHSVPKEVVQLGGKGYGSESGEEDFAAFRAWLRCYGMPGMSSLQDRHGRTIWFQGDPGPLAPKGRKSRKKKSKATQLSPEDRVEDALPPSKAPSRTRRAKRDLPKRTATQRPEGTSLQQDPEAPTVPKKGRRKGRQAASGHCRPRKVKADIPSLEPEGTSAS
Sequence of GST-hNEIL1 (residues 1–390) (Q96FI4 whole entry, the tested form may be a part): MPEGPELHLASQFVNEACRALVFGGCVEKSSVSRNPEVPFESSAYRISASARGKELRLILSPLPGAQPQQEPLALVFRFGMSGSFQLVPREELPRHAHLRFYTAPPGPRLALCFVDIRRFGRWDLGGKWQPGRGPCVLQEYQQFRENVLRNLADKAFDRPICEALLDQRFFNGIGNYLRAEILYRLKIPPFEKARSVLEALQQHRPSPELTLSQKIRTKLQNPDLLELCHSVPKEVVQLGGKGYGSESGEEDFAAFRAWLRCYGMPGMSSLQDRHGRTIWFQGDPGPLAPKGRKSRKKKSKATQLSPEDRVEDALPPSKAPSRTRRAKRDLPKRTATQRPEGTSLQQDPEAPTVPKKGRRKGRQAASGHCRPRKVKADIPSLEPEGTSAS

Turning to B1, the binding result in test [1] and in test [2] was “binds” each time.

As to B2, the binding result in test [3] and in test [4] was “binds” in each case.

With B3, the binding result in test [3] and in test [4] was “binds” throughout.

Turning to B4, the binding result in test [1], in test [5] and in test [2] was “binds” in each case.

In the case of B5, the binding result in test [6] and in test [7] was “binds” in each case.
